Tested on: primary cortical neurons from the ASIC1a KO mice (ASIC1a−/−)
Experiment: ICC staining of primary cortical neurons from ASIC1a KO mice
Type: cell-based, mouse
Procedure: Cell Culture. The CHO-K1 cell line (#CRL-9618; ATCC) was maintained in an F-12k media (#21127022; Gibco) containing 10% (vol/vol) FBS (#1600074; Gibco), whereas the FreeStyle 293F (#R79007; ThermoFisher Scientific) cell line was cultured in a Freestyle 293 expression media (#12338026; Thermo-Fisher Scientific). Spodoptera frugiperda 9 (Sf9) cells (#12659017; Thermo-Fisher Scientific) was cultured at 27° C. in an ESF921 media (#96-001-01; Expression Systems). Primary cortical neurons dissected from E18-d-old C57 BL/6 mice or ASIC1a^−/− mice were maintained in a Neurobasal media (#21103049; Gibco) supplemented with B27 (#17504044; Gibco) and Glutamx I (#35050061; Gibco). The CHO-K1/hASIC1a stable cell line overexpressing the full-length hASIC1a (1-528 amino acids) channel was generated as follows: The cDNA of the full-length hASIC1a with a C-terminal eYFP fusion or a C-terminal mCherry fusion was constructed, cloned into a pCDNA3.1-Neo expressing vector, and transfected into the CHO-K1 cells using Lipofectin 2000. The CHO-K1/hASIC1a stable cell line was selected by the antibiotic, geneticin (up to 1 mg/mL), and validated by the fused fluorescence proteins eYFP (λex=488 nm; λem=528 nm) or mCherry fluorescence (λex=587 nm; λem=610 nm) using flow cytometry. Over 80% positive cells survived when cultured in the presence of 200 µg/mL geneticin for 30 days. […]

B1: ASC06-IgG1: ASC06 antibody converted into a full length IgG1 form (antibody, V domains shown)
VH: QVQLQQSGGGLVQPGGSLRLSCAASGFTFSSYAMSWVRQAPGKGLEWVSAISGSGGSTYYADSVKGRFTISRDNSKNTLYLQMNSLRAEDTAVYYCAKDSFYGYSKGDWGQGTLVTVSS
VL: QSALTQPASVSGSPGQSITISCTGTSSDVGAYNYVSWYQQQPGKAPKLMIYGVSNRPSGVSNRFSGSKSGNAASLTISGLQAEDEADYYCSSYTSSSTYVFGTGTKLTVLG
binding to KO neurons transfected with hASIC1a-mCherry (transfected with hASIC1a-mCherry): binding occurs in the postsynaptic dendrites
binding to primary neurons from the KO mice (untransfected ASIC1a−/− neurons): no apparent binding

Source: US12692310B2, “ASIC1 channel antagonist antibody” (ShanghaiTech University, priority 2019, dated 2026)
